Experiment [1] deals with adriamycin induced rat nephritis proteinuria. Briefly: Adriamycin induced nephritis proteinuria in rats (unilateral nephrectomy + adriamycin). It is filed as in vivo. The note with it: urine, ELISA, adriamycin 3 + 2 mg/kg, 20 ug/kg by gavage once a day for 8 weeks. An excerpt:
1. Experimental Animals and Groups
80 male SD rats weighing 160-180 g were randomly divided into 2 groups: 20 in the control group and 60 in the model group. 40 rats in model group, after success in modeling, were randomly divided into cobra neurotoxin polypeptide treatment group and model group.
Each group of the three, namely control group, treatment group and model group were randomly divided into two groups again, with 10 rats in each group to test cobra neurotoxin peptide SEQ ID No. 1 and SEQ ID No. 2, the remaining rats were out of the groups.
Glomerulosclerotic rats were established by unilateral nephrectomy combined with tail vein injection of adriamycin twice every 2 weeks. Model. […] The control group was injected into caudal vein on the 4th and 18th day respectively with normal saline 0.5 ml.
During the 8 weeks of observation, the treatment group was given cobra neurotoxin polypeptide·20 ug/kg by gavage once a day, continuously for 8 weeks; the model group and the control group were perfused with normal saline once a day for 8 weeks.
3. Collection and Detection of Urinary Protein
After the last treatment, the rats were placed in the metabolic cage to collect 10 ml of urine, centrifuged at 3500 r/min for 10 min, the supernatant was extracted into the cryopreservation tube, stored in the refrigerator at −80° C. for standby, and the urinary A1 microglobulin was detected by enzyme-linked immunosorbent assay, β2-microglobulin, microalbumin, transferrin and immunoglobulin G (IgG), operate according to the instructions of ELISA kit.
Anesthetized rats were injected intraperitoneally with 1.5% Pentobarbital Sodium (50 mg/kg). After the corneal reflex disappeared, the abdominal cavity was opened and the abdominal aorta was exposed. The abdominal aorta collected 10 ml of whole blood and placed in a centrifuge tube. After standing for 2 h, centrifuged at 3500 r/min for 10 min. The supernatant was extracted in a cryopreservation tube and stored in a refrigerator at −80° C. for standby. The serum creatinine, urea nitrogen, cholesterol and triglyceride were detected by a full-automatic biochemical analyzer.
In general terms: In an ELISA, binding on a coated surface is turned into a signal by an enzyme label.

In experiment [2] the test system is streptozotocin (STZ)-induced rat nephritis proteinuria. Briefly: Streptozotocin (STZ)-induced nephritis proteinuria in rats. It is filed as in vivo. The note with it: urine, ELISA, streptozotocin (STZ) 55 mg/kg, 20 ug/kg by gavage once a day for 8 weeks.
In experiment [3] the target is T1, nicotinic acetylcholine receptor (nAChR) (Rattus norvegicus, UniProt P25108+P25110).
T1 construct: rat skeletal muscle nAChR extract; from tissue; host or cells: rat skeletal muscle (extract)
T1 sequence (P25108 21-457): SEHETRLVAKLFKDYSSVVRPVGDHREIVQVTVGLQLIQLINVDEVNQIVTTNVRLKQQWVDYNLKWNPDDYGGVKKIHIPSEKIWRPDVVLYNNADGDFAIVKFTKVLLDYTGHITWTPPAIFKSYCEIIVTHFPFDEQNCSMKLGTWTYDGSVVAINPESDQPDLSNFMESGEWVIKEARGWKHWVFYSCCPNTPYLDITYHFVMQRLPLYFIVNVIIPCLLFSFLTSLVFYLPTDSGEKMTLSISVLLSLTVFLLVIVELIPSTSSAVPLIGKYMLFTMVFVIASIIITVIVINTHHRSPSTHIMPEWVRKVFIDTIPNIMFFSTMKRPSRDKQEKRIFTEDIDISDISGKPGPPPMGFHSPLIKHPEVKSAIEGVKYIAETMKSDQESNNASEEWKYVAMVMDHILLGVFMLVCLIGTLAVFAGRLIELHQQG
T1 sequence (P25109 24-501 partner): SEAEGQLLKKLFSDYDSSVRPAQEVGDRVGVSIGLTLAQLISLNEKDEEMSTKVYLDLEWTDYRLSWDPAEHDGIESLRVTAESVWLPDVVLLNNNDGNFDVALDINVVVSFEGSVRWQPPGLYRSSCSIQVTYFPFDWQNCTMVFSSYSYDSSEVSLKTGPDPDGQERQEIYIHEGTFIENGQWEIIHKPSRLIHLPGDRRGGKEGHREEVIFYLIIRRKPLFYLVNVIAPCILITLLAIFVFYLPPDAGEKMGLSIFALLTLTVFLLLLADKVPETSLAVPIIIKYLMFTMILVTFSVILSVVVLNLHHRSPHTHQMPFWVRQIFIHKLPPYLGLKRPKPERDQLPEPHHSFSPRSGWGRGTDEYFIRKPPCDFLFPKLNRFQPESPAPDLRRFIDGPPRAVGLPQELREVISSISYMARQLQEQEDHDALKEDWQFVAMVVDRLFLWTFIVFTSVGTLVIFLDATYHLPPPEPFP
T1 sequence (P25110 22-517): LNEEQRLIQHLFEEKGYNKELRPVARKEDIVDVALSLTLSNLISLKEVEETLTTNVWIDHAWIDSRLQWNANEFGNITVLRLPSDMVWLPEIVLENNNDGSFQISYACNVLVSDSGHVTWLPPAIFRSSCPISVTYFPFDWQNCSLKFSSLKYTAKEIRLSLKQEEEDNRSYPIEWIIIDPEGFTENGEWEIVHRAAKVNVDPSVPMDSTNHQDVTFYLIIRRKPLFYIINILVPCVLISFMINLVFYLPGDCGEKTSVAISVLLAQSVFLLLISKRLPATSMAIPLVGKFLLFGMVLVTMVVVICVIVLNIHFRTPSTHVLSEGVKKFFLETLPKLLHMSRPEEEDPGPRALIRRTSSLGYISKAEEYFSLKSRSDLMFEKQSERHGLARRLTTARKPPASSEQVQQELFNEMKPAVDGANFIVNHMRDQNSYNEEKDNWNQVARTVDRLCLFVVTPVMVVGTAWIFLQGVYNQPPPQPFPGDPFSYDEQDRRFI
Description: 125I-αBtx-nAChR binding inhibition (affinity test of snake venom protein peaks). The note with it: rat skeletal muscle nAChR extract; αBTX = 100%, BSA = 0%. The text has this:
The method was based on the affinity test between 12 protein peaks and nicotinic acetylcholine receptor (nAChR).
The Principle of Affinity Test
Because α-bungarotoxin has high affinity with the nicotinic acetylcholine receptor (nAChR), the cobra neurotoxin can compete with α-bungarotoxin for binding with nicotinic acetylcholine receptor, and only these α-bungarotoxin labeled with the radionuclide 125I and bound with the nicotinic acetylcholine receptor will be precipitated and be counted by the Gamma immunocount instrument whilst unbound α-bungarotoxin will be washed out. Therefore, 12 isolated proteins binding inhibition rate of α-bungarotoxin with nicotinic acetylcholine receptor (nAChR) could be used to measure the affinity between the isolated proteins and nicotinic acetylcholine receptor (nAChR), that's each isolated protein's bioactivity, which could be further determined by the γ counting value per second (Bq) measured by immune counter, and it becomes the index of proteins bioactivity.
The way of implementation include the method of binding inhibition rate of 125I radioactive labeling-α-bungarotoxin with nicotinic acetylcholine receptor (%) which reflects the activity of each protein.
The method for identifying cobra neurotoxin with high affinity with nicotinic acetylcholine receptor (nAChR) includes the following steps: […]

B1: SEQ ID No. 2 (protein, listed as Naja atra)
chain: MKTLLLTLLVVTIVCLDLGYTLECHNQQSSQTPTTTGCSGGETNCYKKRWRDHRGYRTERGCGCPSVKNGIEINCCTTDRCNN
B1: in experiment [1] (Table 2), the IgG was determined as 0.31 ± 0.15 µg/mL, the TRF came out at 0.11 ± 0.032 µg/mL, the UALB is 0.82 ± 0.21 µg/mL and the a1-MG worked out at 0.74 ± 0.14 µg/mL. In experiment [2] (Table 4), this molecule had an IgG of 0.31 ± 0.09 µg/mL, a TRF of 0.18 ± 0.06 µg/mL, a UALB of 0.89 ± 0.26 µg/mL and an a1-MG of 0.96 ± 0.19 µg/mL.

B2: SEQ ID No. 1 (protein, listed as Naja atra)
chain: LECHNQQSSQTPTTTGCSGGETNCYKKRWRDHRGYRTERGCGCPSVKNGIEINCCTTDRCNN
For the molecule B2, in experiment [3], the “125I-αBtx-nAChR binding inhibitory rate” value is “about 50%”. In experiment [1] (Table 1), the IgG was determined as 0.34 ± 0.08 µg/mL, the TRF is 0.17 ± 0.08 µg/mL, the UALB stood at 0.89 ± 0.11 µg/mL and the a1-MG came to 0.52 ± 0.8 µg/mL. Also, the β2-MG in experiment [1] (Table 1) was determined as 29.29 ± 6.93 ng/mL. In experiment [2] (Table 3), this molecule came in with an IgG of 0.35 ± 0.11 µg/mL, a TRF of 0.17 ± 0.05 µg/mL, a UALB of 1.21 ± 0.14 µg/mL and an a1-MG of 1.02 ± 0.21 µg/mL. For the same molecule, the β2-MG in experiment [2] (Table 3) stood at 38.90 ± 11.82 ng/mL.
